Test results: patent US20060148059A1, “Salt tolerant l-myo-inositol 1-phosphate synthase and the process of obtaining the same” (priority 2002, published 2006)

B1: Oryza sativa L-myo-inositol 1-phosphate synthase RINO1, recombinant (GenBank AB012107) (Oryza sativa Japonica Group) (protein)
chain: MFIESFRVESPHVRYGAAEIESDYQYDTTELVHESHDGASRWIVRPKSVRYNFRTTTTVPKLGVMLVGWGGNNGSTLTAGVIANREGISWATKDKVQQANYYGSLTQASTIRVGSYNGEEIYAPFKSLLPMVNPDDLVFGGWDISNMNLADAMTRAKVLDIDLQKQLRPYMESMVPLPGIYDPDFIAANQGSRANNVIKGTKKEQMEQIIKDIREFKEKSKVDKVVVLWTANTERYSNVCVGLNDTMENLLASVDKNEAEISPSTLYAIACVMEGIPFINGSPQNTFVPGLIDLAIKNNCLIGGDDFKSGQTKMKSVLVDFLVGAGIKPTSIVSYNHLGNNDGMNLSAPQTFRSKEISKSNVVDDMVSSNAILYELGEHPDHVVVIKYVPYVGDSKRAMDEYTSEIFMGGKSTIVLHNTCEDSLLAAPIILDLVLLAELSTRIQLKAEGEEKFHSFHPVATILSYLTKAPLVPPGTPVVNALAKQRAMLENIMRACVGLAPENNMILEYK
notes: homotrimer
B2: Porteresia coarctata L-myo-inositol 1-phosphate synthase PINO1, recombinant (GenBank AF 412340) (Oryza coarctata) (protein)
chain: MFIESFRVESPHVRYGAAEIESEYRYDTTELVHESHDGASRWVVRPKSVQYHFRTSTTVPKLGVMLVGWGGNNGSTLTAGVIASREGISWATKDKVQQANYYGSLTQASTIRVGSYNGEEIYAPFKSLLPMVNPDDLVFGGWDISNMNLADAMTRAKVLDIDLQKQLRPYMESWCLSLASMIPTSSPLTRDPARTMSSREPRRSRWGRSSKDIREFKENNKMDKAVVLWTANTERYNNCLCLGLMTNGKPSASVDRNQAEISPSTLYCHCLASLEGVRSITGALKKKSWPGIDDLAIKKKLPDPGGLIQKRGKPKKKTGLVDFLMGAGIKPTSIVSYNHLGNNDGTNLSAPQTFRSKEISKSSVVDDMVSSNAILYEPGEHPDHVVVIKYVPYVGDSKRAMDEYTSEIFMGGKNTIVLHNTCEDSLLAAPIILDLVLLAELSTRIQLKGEGEEKFHSFHPVATILSYLTKAPLVPPGTPVVNALAKQRAMLENIMRACVGLAPENNMILEYK
notes: homotrimer

Columns and labels:
[1] = substrate: NC(=O)c1ccc[n+]([C@@H]2O[C@H](COP(=O)([O-])OP(=O)(O)OC[C@H]3O[C@@H](n4cnc5c(N)ncnc54)[C@H](O)[C@@H]3O)[C@@H](O)[C@H]2O)c1; experiment: Km and Vmax of recombinant RINO1 (Biogel 0.5A purified, Line-Weaver Burk analysis); format: biochemical, Oryza sativa; conditions: other: recombinant RINO1, expressed in E. coli BL21 (DE3), pH 7.5
Description: (§1) The cDNA for RINO1 and PINO1 were subcloned into suitable cloning sites of the bacterial expression vector pET 20B (+). The resulting plasmids were introduced into the host strain E. coli BL-21 (DE3). The bacteria were grown in LB medium up to A600 of 0.5-absorbance unit and induced by 0.5 mM IPTG for 6 hours at 30° C. The bacteria were collected by centrifugation and lysed by sonication in a buffer containing 20 mM Tris-HCl, pH 7.5. 10 mM each of NH4Cl and ME, 2 mM PMSF. The lysed extracts were centrifuged and protein from both soluble and membrane fractions were analyzed by 10% SDS-PAGE according to Lammeli (Nature, 227, 660-605, 1970) followed by western blot for immunodetection. The separated proteins were blotted onto PVDF membrane and the blot was probed with rabbit anti L-myo-inositol 1-phosphate synthase antibody (1:500) raised against purified recombinant L-myo-inositol 1-phosphate synthase of Entamoeba (Lohia et al, Mol. Biochem. Parasitol. 98, 67-79, 1999) or purified cytosolic L myo-inositol 1-phosphate […] from Oryza leaves. Bound antibody was detected by the chemiluminiscence (kit from Amersham Life Sciences). […] The expressed RINO1 and PINO1 proteins were solubilized from the pellet fractions in solubilization buffer (8M urea, 0.5 M NaCl, 20 mM Tris-HCl pH 7.5, 10 mM ME, 2 mM PMSF) kept for 30 minutes at room temperature. […]

[2] = substrate: O=P(O)(O)OC[C@H]1OC(O)[C@H](O)[C@@H](O)[C@@H]1O; experiment: cells, lysate or membranes named; conditions: Line-Weaver Burk analysis, pH 7.5
[3] = substrate: NC(=O)c1ccc[n+]([C@@H]2O[C@H](COP(=O)([O-])OP(=O)(O)OC[C@H]3O[C@@H](n4cnc5c(N)ncnc54)[C@H](O)[C@@H]3O)[C@@H](O)[C@H]2O)c1; experiment: Km and Vmax of recombinant PINO1 (Biogel 0.5A purified, Line-Weaver Burk analysis); format: biochemical, Porteresia coarctata; conditions: other: recombinant PINO1, expressed in E. coli BL21 (DE3), pH 7.5
Description: as §1

| Protein | Km [1] [µM] | Km ([2]; other: recombinant RINO1, expressed in E. coli BL21 (DE3)) [µM] | Km ([2]; other: recombinant PINO1, expressed in E. coli BL21 (DE3)) [µM] | Km [3] [µM] |
| --- | --- | --- | --- | --- |
| B1 | 188 | 3000 | – | – |
| B2 | – | – | 2500 | 166 |
